Reference: PMC6491607, “4-Coumarate 3-hydroxylase in the lignin biosynthesis pathway is a cytosolic ascorbate peroxidase” (Nature Communications, 2019)

Columns and labels:
[1] = substrate: N[C@@H](Cc1ccc(O)cc1)C(=O)O; experiment: HPLC of product (L-DOPA), Hill fit; format: biochemical, Arabidopsis thaliana; settings: H2O2 co-substrate, ascorbate 4 mM, sodium phosphate pH 6, 30 °C, hemin reconstituted
[2] = substrate: O=C1O[C@H]([C@@H](O)CO)C(O)=C1O; experiment: purified protein; settings: H2O2 co-substrate, sodium phosphate pH 6, hemin reconstituted
[3] = substrate: O=C(O)/C=C/c1ccc(O)cc1; experiment: HPLC of product, Hill fit; format: biochemical, Arabidopsis thaliana; settings: H2O2 co-substrate, ascorbate 4 mM, sodium phosphate pH 6, 30 °C, hemin reconstituted

B1: Arabidopsis C3H (4-coumarate 3-hydroxylase; cytosolic ascorbate peroxidase APX1) (Arabidopsis thaliana) (protein)
chain: MTKNYPTVSEDYKKAVEKCRRKLRGLIAEKNCAPIMVRLAWHSAGTFDCQSRTGGPFGTMRFDAEQAHGANSGIHIALRLLDPIREQFPTISFADFHQLAGVVAVEVTGGPDIPFHPGREDKPQPPPEGRLPDATKGCDHLRDVFAKQMGLSDKDIVALSGAHTLGRCHKDRSGFEGAWTSNPLIFDNSYFKELLSGEKEGLLQLVSDKALLDDPVFRPLVEKYAADEDAFFADYAEAHMKLSELGFADA
notes: full-length cDNA in pDEST17, N-terminal 6xHis tag kept, E. coli Rosetta, Ni-NTA purified, hemin reconstituted
Work on B1 yielded a K0.5 [1] of 653 ± 127 µM, a kcat [1] of 599 s–1 and a K0.5 [2] of 299 ± 63 µM. The kcat [2] was 181 s–1, the K0.5 [3] was 708 ± 154 µM and the kcat [3] was 492 s–1.
